Measurements from patent US20240294595A1, “GLYCOPEPTIDES AND USES THEREOF” (Arizona Board of Regents on Behalf of the University of …, priority 2013, published 2024).
Where no end group is shown, it is not given here. [ ]: non-standard residue; d: D form. The star is where a group is joined. βGlc = OC[C@H]1O[C@@H](*)[C@H](O)[C@@H](O)[C@@H]1O; Nle = CCCC[C@H](N)C(=O)O

B1: Hs…Ñ…-Ser(Glc) (peptide)
peptide: HSDGIFTDSYSRYRKQXAVKKYLAAVLS
modifications: here or on the partner: D-Serine at 2 (s); L-Nor-Leucine at 17 (Ñ, written X in letters); Ser 28 = L-Ser(β-D-Glc)
B2: PACAP1-27-S-G (peptide)
peptide: HSDGIFTDSYSRYRKQMAVKKYLAAVLS
modifications: here or on the partner: added C-terminal serine carries glucose (serine glucoside)
B3: Hs…Ñ…-Ser(Glc) (peptide)
peptide: HSDGIFTDSYSRYRKQXAVKKYLAAVS
modifications: here or on the partner: D-Serine at 2 (s); L-Nor-Leucine at 17 (Ñ, written X in letters); Ser 27 = L-Ser(β-D-Glc)
B4: Hs…Ñ…-Ser(Glc) (peptide)
peptide: HSDGIFADSYSRYRKQXAVKKYLAAVLS
modifications: here or on the partner: D-Serine at 2 (s); L-Nor-Leucine at 17 (Ñ, written X in letters); Ser 28 = L-Ser(β-D-Glc)

Target: human PAC1 receptor (PAC1-CHO clonal cell line) (human), P41586
Experiment: cell-based or functional assay

Sequence of human PAC1 receptor (PAC1-CHO clonal cell line) (human), P41586 (P41586 21-468): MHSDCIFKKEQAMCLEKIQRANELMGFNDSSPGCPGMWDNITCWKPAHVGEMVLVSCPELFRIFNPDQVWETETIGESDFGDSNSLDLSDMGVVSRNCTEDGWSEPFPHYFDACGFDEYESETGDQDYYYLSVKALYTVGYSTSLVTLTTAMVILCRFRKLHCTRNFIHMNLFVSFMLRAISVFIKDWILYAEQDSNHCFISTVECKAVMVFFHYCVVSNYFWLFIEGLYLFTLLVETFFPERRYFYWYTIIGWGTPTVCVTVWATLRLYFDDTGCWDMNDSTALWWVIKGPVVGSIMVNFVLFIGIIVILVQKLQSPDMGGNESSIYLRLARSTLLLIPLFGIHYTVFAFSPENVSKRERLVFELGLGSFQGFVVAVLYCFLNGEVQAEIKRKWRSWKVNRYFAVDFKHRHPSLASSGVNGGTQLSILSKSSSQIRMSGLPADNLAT

Binder | EC50 (agonist) [µM] | EMax (agonist) [%] | further results
B1 | 0.0255 | 85 | –
HSDGIFTDSYSRYRKQLAVKKYLAAVLS(melibiose)-NH2 […-Ser(Mel)] | 0.00057 | 99 | –
H[dS]DGIFTDSYSRYRKQ[Nle]AVKKYLAALS(βGlc)L-NH2 (ends and bridges not checked) [Hs…Ñ…-Ser(Glc)-L] | > 0.25 | -79 | –
B2 | – | – | normalized efficacy (calcium flux, FLIPR; PACAP1-27 = 100%): 102%; potency of PAC1 activation (calcium flux, FLIPR, agonist mode, PAC1-CHO cells): 0.00568 µM
B3 | 0.0545 | 86 | –
B4 | > 0.25 | -71 | –
FTDSYSRYRKQMAVKKYLAAVLGKRYKQRVKNK (ends and bridges not checked) [PACAP6-38] | – | – | antagonist potency, variable concentration mode versus 5 nM PACAP1-27 (calcium flux, FLIPR): > 0.333 µM; pA2 (Gaddum/Schild EC50 shift model): 201 nM
HSDGIFTDSYSRYRKQMAVKKYLAAVL (ends and bridges not checked) [PACAP1-27] | – | 100 | –
